What was measured:
[1] = biological target: human CTLA-4 (amino acids M1-N223) on stably transfected VI-fibroblast cells (human) (UniProt P16410); assay: ECL cell binding, VI-fibroblast/hCTLA-4 cells
[2] = biological target: mf CTLA-4 extracellular domain (aa 1-161) fused to the trans-membrane and cytoplasmic domain of hCD300a (aa 181-299), on Jurkat/NFAT-Luc cells (Macaca fascicularis; human) (UniProt G7PL88); assay: cell-based or functional assay
[3] = biological target: hCTLA-4 extracellular domain (aa 1-161) fused to the trans-membrane and cytoplasmic domain of hCD300a (aa 181-299), on Jurkat/NFAT-Luc cells (human) (UniProt Q9UGN4); assay: cell-based or functional assay
hCTLA-4 extracellular domain (aa 1-161) fused to the trans-membrane and cytoplasmic domain of hCD300a (aa 181-299), on Jurkat/NFAT-Luc cells (human), sequence (Q9UGN4 other isoform, or with tags, fused parts or gaps limits assumed, form in doubt): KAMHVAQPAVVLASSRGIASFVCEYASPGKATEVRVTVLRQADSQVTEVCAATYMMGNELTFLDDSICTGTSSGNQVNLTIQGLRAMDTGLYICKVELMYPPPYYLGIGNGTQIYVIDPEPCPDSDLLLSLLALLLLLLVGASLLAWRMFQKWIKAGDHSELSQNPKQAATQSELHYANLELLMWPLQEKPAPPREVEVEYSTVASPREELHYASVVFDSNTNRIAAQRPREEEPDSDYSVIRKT

human CTLA-4 (amino acids M1-N223) on stably transfected VI-fibroblast cells (human), sequence (P16410 36-223 limits assumed): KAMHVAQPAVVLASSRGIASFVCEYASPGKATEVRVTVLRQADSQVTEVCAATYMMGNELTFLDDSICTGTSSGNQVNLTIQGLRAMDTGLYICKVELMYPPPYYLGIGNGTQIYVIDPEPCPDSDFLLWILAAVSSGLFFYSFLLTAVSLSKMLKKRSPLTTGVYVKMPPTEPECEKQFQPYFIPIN
mf CTLA-4 extracellular domain (aa 1-161) fused to the trans-membrane and cytoplasmic domain of hCD300a (aa 181-299), on Jurkat/NFAT-Luc cells (Macaca fascicularis; human), sequence (Q9UGN4 other isoform, or with tags, fused parts or gaps, form in doubt): as the sequence (Q9UGN4 other isoform, or with tags, fused parts or gaps limits assumed, form in doubt) above, with S14N, L106M counted along it

ratio of RLU signal to parental VI-fibroblast at 0.4 nM Ab [1]	Fold induction of IL-2 at 100 nM, APC HEK293/hCD20/hCD86 (isotype control) [2] [fold]	Fold induction of IL-2 at 100 nM, APC HEK293/hCD20/hCD80 (isotype control) [3] [fold]	ratio of RLU signal to parental VI-fibroblast at 0.6 nM Ab [1]	Substance
1	1.1	0.8	–	hIgG1 Isotype Control (antibody)
–	1	1	–	hIgG2 Isotype (antibody)
–	–	–	1	mIgG2 Isotype Control (antibody)

— patent US20210040232A1
